Test results reported in patent publication US20050176073A1, “Cell proliferation associated with CCX CKR expression” (ChemoCentryx, Inc., priority 2004, published 2005).
One block for each molecule: values may come before it.

How the values were obtained:
[1] = tested on: HEK293 cells transfected with CCX CKR; experiment: PowerBlot protein expression analysis, HEK293 cells transfected with CCX CKR; assay type: cell-based, human; details: relative to cells simply transformed with CCX CKR; FIG. 2
Method: (§1) Studies were also conducted to assess what effect CCX CKR activity had on protein expression. This was analyzed by determining protein levels for both unstransfected HEK293 cells, and HEK293 cells transfected with CCX CKR, grown both in the presence and absence of the ligands ELC, SLC or TECK. Protein levels were determined using the BD PowerBlot™ technology developed by Becton Dickinson, and available from BD Biosciences Pharmingen. In general, this analysis involves separating proteins in cellular lysates by polyacrylamide electrophoresis and then conducting a Western blot with over 1,000 monoclonal antibodies specific for certain proteins. Antibodies that bind to a protein band on the gel are visualized using a digital camera that detects chemiluminescence from the bound antibody. The amount of protein can be determined based upon the strength of the signal. Further details regarding the application of this technology are discussed by Lorenz, P., et al. Proteomics (2003) 3:991-1002; Malakhov, M. P., et al. (2003) J. Biol. Chem. .278:16608-13; and Yoo, G. H., et al. (2002) Clin Cancer Res. 8:3910-21.
(§2) FIG. 2 provides a chart that provides a comparison of the number of proteins that were increased and decreased under different sets of conditions.

CCX CKR [2] = target: T1, CCX CKR (Homo sapiens, UniProt Q9NPB9); details: WO 01/27146; cited from earlier work
T1 sequence (Q9NPB9 1-350): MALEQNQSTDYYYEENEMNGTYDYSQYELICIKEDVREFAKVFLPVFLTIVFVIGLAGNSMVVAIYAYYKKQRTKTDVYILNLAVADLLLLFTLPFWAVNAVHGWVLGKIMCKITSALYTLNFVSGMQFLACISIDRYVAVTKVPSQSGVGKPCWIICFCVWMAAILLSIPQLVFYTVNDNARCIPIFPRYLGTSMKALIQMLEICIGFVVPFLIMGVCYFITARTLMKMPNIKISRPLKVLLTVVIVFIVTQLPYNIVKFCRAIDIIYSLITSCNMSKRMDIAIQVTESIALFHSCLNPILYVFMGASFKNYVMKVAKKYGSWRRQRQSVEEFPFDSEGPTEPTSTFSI

[3] = tested on: untransfected HEK293 cells; experiment: PowerBlot protein expression analysis, untransfected HEK293 cells; assay type: cell-based, human; details: untransfected HEK293 cells contacted with ligand; FIG. 2
Method: as §1, §2

CCX CKR [4] = target: T1, CCX CKR; experiment: Small molecule modulators of CCX CKR function
Text: Other compounds are based upon agonists and antagonists for CCX CKR, which have been identified and are shown below: […]

[5] = tested on: HEK293 cells transfected with CCX CKR; experiment: Cell growth curves (hemacytometer counting) of HEK293 cells transfected with CCX CKR; assay type: cell-based, human; details: ligand in growth medium, growth curves over 6 days; FIG. 4
Method: Another set of experiments were conducted to ascertain whether CCX CKR plays a role in cell growth. One experiment involved culturing (1) untransfected HEK293 cells (ATCC #CRL 1573) (control), (2) HEK 293 cells transfected with CCX CKR as a polyclonal mixture, and (3) three different clones of HEK293 stably transfected with CCX CKR, thus giving a total of […] different cell cultures. Each of these cultures were obtained by seeding 50,000 cells/well in triplicate. The three different clones (clones 9, 12 and 13) were obtained by a limited dilution of the polyclonal mixture of cells.
Cells were allowed to attach for 12 hours in growth medium (Dulbecco's minimal essential medium with 10% fetal bovine serum), then cultured in the absence of fetal bovine serum for 12 hours to synchronize the cell cycle. Growth medium was then added back to cells, and plates returned to the incubator. Each day for 6 days, cells were removed with trypsin and counted with a hemacytometer.
Another set of experiments were conducted using the same procedure just described to address two issues: (1) whether the autoactive response observed in the first set of experiments was simply a consequence of the transformation process, and (2) to determine what effect ligands had on the ability of CCX CKR to promote cellular growth. […]

Molecule: ELC: chemokine, CCX CKR ligand, also referred to as MIP-3β
- Change in protein expression on addition of ligand [1]: only a modest change in protein expression
- Affinity of CCX CKR for chemokine (CCX CKR [2]): high affinity
- Effect on protein expression levels [3]: relatively minor effect on protein expression levels

B1: SLC: chemokine, CCX CKR ligand, also referred to as 6-Ckine (protein, UniProt O00585 24-134, looked up)
C-C motif chemokine 21: SDGGAQDCCLKYSQRKIPAKVVRSYRKQEPSLGCSIPAILFLPRKRSQAELCADPKELWVQQLMQHLDKTPSPQKPAQGCRKDRGASKTGKKGKGSKGCKRTERSQTPKGP
- Change in protein expression on addition of ligand [1]: only a modest change in protein expression
- Affinity of CCX CKR for chemokine (CCX CKR [2]): high affinity

B2: TECK: chemokine, CCX CKR ligand (protein, UniProt O15444 24-150, looked up)
C-C motif chemokine 25: QGVFEDCCLAYHYPIGWAVLRRAWTYRIQEVSGSCNLPAAIFYLPKRHRKVCGNPKSREVQRAMKLLDARNKVFAKLHHNTQTFQAGPHAVKKLSSGNSKLSSSKFSNPISSSKRNVSLLISANSGL
- Effect on cell growth [5]: modest effect on cell growth activity, with perhaps even a slight decrease in cell growth
- Change in protein expression on addition of ligand [1]: only a modest change in protein expression
- Affinity of CCX CKR for chemokine (CCX CKR [2]): high affinity

Other lines, results leading:

- Modulation of CCX CKR function (agonist or antagonist) (CCX CKR [4]): Compound I (antagonist)
Molecule: CC1CCCCN1CCCN(Cc1ccc(OCc2ccccc2)cc1)C(=O)Nc1ccc(Cl)c(Cl)c1 (centres unmarked) [Compound I]

- Modulation of CCX CKR function (agonist or antagonist) (CCX CKR [4]): Compound III (agonist)
Molecule: CCC(c1nc2ccccc2c(=O)n1C)N(Cc1ccco1)C(=O)Nc1cccc(C(F)(F)F)c1 (centres unmarked) [Compound III]

- Modulation of CCX CKR function (agonist or antagonist) (CCX CKR [4]): Compound II (antagonist)
Molecule: CC1CCCCN1CCCN(Cc1ccc(OCc2ccccc2)cc1)C(=O)NC12CC3CC(CC(C3)C1)C2 (centres unmarked) [Compound II]
